The values below come from patent US20260028424A1 (GRANULAR THERAPEUTICS, published 2026).

Experiment [1] deals with c-Kit (antigen of the binding assay of FIG. 9A) (Homo sapiens (Human), UniProt P10721 26-524). Description: plate binding assay on Human c-KIT, A450-A630 (ratio corrected).
For experiment [2], the target named is T1, CD203c (ENPP3) (antigen of the binding assay of FIG. 9B) (Homo sapiens (Human), UniProt O14638 31-875).
T1 construct: not shown: His tag of the recombinant protein
T1 sequence: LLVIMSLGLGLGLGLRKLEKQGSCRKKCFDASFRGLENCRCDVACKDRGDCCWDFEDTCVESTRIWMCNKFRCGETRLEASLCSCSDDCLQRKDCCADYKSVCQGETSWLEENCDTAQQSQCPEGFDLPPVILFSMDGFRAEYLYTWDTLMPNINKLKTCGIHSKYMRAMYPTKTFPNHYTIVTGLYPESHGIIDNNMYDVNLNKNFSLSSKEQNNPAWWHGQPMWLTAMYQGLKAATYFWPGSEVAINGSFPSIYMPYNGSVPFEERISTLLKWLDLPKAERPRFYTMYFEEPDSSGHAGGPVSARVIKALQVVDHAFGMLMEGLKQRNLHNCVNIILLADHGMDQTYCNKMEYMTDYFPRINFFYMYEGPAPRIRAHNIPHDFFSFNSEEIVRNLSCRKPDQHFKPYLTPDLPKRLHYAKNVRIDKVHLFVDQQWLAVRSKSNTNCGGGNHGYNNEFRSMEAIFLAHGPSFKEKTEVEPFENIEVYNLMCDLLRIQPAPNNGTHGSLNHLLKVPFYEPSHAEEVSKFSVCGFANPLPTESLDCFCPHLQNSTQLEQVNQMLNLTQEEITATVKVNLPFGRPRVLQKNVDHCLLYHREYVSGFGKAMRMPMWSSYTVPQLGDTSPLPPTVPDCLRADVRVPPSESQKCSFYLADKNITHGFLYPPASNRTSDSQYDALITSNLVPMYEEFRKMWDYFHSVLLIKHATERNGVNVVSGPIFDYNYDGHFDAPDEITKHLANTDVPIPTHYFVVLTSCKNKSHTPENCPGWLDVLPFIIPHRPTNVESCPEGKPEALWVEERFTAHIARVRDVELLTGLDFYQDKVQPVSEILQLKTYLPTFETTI
Description: plate binding assay on Human ENPP3, A450-A630 (ratio corrected).

The target of experiment [3] is T2, rhesus monkey CD203c His-tagged recombinant protein (rhesus monkey, UniProt F6TH66 31-874).
T2 construct: also called rhesus CD203c; not shown: His tag
T2 sequence: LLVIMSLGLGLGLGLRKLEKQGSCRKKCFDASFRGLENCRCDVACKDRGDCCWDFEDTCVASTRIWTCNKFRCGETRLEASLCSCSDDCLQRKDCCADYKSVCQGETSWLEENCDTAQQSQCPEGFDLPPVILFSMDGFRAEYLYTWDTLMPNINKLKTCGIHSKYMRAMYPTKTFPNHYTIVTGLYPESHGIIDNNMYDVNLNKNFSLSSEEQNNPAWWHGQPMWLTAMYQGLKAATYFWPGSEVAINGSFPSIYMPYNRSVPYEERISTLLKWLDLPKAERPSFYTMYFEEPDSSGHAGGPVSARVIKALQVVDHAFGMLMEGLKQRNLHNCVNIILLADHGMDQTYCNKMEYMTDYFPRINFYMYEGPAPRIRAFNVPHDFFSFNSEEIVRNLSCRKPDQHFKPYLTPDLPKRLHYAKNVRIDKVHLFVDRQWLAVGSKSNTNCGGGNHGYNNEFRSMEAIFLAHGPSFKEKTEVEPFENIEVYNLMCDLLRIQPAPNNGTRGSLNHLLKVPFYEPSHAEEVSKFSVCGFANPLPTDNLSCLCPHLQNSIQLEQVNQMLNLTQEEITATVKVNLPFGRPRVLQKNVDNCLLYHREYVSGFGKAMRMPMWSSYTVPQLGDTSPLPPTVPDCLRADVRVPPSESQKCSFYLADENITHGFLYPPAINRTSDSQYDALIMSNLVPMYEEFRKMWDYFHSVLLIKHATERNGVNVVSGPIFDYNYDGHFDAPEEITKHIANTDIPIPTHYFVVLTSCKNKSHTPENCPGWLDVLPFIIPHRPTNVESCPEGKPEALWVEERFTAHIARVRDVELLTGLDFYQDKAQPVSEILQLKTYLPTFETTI
The experiment is described as follows: direct binding ELISA on coated recombinant rhesus CD203c. On the procedure: (§1) Binding and cross-reactivity of the molecules to the human, rhesus, and cynomolgus CD203c was initially assessed by binding ELISA. The human CD203c His-tagged recombinant protein and the rhesus monkey CD203c His-tagged recombinant protein were coated to the surface of MaxiSorp™ flat-bottom 96 well plates at a concentration of 1 μg/ml. The purified samples were titrated in 5-fold serial dilutions starting from 100 nM and allowed to bind to the coated antigens. The IgGs were detected using mouse anti-human IgG conjugated to horseradish peroxidase. Binding signals were visualized with 3,3′,5,5′-Tetramethylbenzidine Substrate Solution (TMB) and the absorbance measured at 450 nm.

Experiment [4] deals with T3, human CD203c His-tagged recombinant protein (human, UniProt O14638 49-875, limits assumed).
T3 construct: also called ENPP3; not shown: His tag
T3 sequence (looked up): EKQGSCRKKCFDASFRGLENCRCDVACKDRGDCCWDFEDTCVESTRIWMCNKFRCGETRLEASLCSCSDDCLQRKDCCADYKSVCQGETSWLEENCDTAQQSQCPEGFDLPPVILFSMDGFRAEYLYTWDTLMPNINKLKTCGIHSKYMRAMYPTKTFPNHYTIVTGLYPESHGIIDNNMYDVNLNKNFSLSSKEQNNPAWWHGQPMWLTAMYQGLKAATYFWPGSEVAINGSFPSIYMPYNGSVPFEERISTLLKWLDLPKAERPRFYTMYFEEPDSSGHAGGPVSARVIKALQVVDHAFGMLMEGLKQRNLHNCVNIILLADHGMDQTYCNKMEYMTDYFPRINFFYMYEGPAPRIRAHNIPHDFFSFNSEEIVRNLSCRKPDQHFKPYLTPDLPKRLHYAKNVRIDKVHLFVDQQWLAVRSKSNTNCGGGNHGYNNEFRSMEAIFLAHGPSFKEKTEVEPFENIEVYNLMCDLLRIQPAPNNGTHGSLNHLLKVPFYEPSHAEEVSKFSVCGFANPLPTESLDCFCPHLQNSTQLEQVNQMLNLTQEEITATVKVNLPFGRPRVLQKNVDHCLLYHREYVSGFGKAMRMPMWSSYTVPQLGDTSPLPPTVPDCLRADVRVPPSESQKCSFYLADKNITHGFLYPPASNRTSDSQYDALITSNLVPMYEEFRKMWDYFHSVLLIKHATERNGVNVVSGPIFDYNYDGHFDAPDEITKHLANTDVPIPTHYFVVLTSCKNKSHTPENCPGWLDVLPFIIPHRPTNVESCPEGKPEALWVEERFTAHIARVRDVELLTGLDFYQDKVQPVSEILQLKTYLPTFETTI
Description: direct binding ELISA on coated recombinant human CD203c. As for the experimental part: as §1
(In general: ELISA stands for enzyme-linked immunosorbent assay.)

Experiment [5] concerns the target T4, human CD203c expressed on the surface of KU812 cells (human, UniProt O14638 1-875).
T4 construct: whole, on cells; also called cell-surface CD203c; cell surface CD203c on KU812 cells
T4 sequence (looked up): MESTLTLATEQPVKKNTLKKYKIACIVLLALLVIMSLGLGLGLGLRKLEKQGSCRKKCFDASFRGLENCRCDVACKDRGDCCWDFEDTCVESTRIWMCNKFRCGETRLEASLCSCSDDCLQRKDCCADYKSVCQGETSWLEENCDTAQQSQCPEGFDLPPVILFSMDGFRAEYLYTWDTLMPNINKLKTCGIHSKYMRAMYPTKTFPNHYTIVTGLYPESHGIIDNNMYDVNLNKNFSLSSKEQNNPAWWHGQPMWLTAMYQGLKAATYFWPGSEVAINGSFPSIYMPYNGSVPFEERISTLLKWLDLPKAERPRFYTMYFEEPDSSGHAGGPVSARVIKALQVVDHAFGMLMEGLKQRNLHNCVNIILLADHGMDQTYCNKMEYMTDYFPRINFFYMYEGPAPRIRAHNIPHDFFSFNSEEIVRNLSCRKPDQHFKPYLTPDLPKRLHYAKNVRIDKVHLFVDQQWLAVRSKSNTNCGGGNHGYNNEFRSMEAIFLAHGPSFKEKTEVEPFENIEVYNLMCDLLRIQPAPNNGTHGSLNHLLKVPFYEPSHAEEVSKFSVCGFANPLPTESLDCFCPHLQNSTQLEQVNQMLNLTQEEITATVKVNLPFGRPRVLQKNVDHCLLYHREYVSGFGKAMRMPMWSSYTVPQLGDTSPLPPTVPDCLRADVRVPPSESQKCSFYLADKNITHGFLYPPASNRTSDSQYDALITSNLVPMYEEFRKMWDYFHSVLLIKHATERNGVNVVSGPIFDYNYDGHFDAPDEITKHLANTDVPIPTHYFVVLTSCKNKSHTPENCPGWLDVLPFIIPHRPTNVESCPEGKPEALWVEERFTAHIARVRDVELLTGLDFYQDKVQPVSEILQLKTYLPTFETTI
The experiment is described as follows: flow cytometry on KU812 cells. As for the experimental part:
All treatments were performed on cells seeded in T75 flasks at a seeding density of 0.3e6/ml. Cells were cultured in the presence of 80 ng/ml of SCF and treated with 20 ng/ml of IL3 24 hours prior to antibody staining. Following SCF/IL3 treatment, cells were harvested and stained with live dead stain (Zombie UV Biolegend 423108). Cells were then stained with a titration of anti-CD203c antibodies/bispecifics or respective isotype controls in a 5-fold dilution series starting at 50 μg/mL and detected with Anti human-Fc AF647 antibody (JIR 109-605-098). Samples were subsequently run on a Yeti analyzer, gating on 10K live cells. Subsequent analysis was performed using FlowJo software and data represented as MFI (median fluorescent intensity).
(In general: Flow cytometry measures light scatter and fluorescence of single cells or particles in a stream.)

c-Kit (antigen of the binding assay of FIG. 9A), sequence (P10721 26-524 limits assumed): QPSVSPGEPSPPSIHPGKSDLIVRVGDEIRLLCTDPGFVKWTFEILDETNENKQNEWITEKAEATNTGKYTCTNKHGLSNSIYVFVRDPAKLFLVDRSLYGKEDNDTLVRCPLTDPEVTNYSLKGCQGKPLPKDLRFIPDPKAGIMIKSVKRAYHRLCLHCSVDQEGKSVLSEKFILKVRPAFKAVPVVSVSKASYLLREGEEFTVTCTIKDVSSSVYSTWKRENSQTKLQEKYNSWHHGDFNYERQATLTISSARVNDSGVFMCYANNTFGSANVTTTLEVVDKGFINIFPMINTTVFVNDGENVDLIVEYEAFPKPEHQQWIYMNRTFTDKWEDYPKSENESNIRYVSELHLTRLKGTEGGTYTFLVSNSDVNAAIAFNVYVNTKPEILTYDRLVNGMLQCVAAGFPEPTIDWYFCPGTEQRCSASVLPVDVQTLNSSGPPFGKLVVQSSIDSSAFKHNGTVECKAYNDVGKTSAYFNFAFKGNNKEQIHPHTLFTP

B1: bispecific pair with alternative common light chain VL3: MH1 VH / 2.14_1 VH / VL3 (bispecific antibody, V domains shown)
VH 1: QVQLVQSGAEVKKPGASVKVSCKASGYTFTDYYMNWVRQAPGQGLEWMGRIYPGSGNTYYAQKFQGRVTMTRDTSTSTVYMELSSLRSEDTAVYYCARGVYYYDYWGQGTLVTVSS
VH 2: QVQLQESGPGLVKPSQTLSLTCTVSGGSISSGGYYWSWIRQHPGKGLEWIGIIYYSGSTYYNPSLKSRVTISVDTSKNQFSLKLNSVTAADTAVFYCARVAIVTTIPGGMDVWGQGTTVTVSS
VL: EIVLTQSPDFQSVTPKEKVTITCRASQGIRTNLAWYQQKPDQSPKLLIKAASSLQSGVPSRFSGSGSGTDFTLTINSLEAEDAATYYCQQYNSYPRTFGQGTKVEIK
Broadly, the EC50 (read off the curve) is the concentration needed to bring the measured effect to its halfway point. In the case of B1, in experiment [1], the “EC50 (read off the curve)” value is roughly 0.1 mg/L. Further, the binding result in experiment [2] is recorded as “no binding (tested: 200 µg/ml)”.

B2: anti-CD203c 1.27 IgG (parental clone, MH1 common light chain) (antibody, V domains shown)
VH: EVQLVQSGAEVKKPGESLKISCKGSGYRFTSYWIGWVRQMPGKGLEWMGIIYPGDSDTRYSPSFQGQVTISADKSISTAYLQWSSLKASDTAMYYCARKDYYYYAMDVWGQGTTVTVSS
VL: DIQMTQSPSSLSASVGDRVTITCRASQGIRTNLAWFQQKPGKAPKSLIYAASSLQSGVPSRFSGSGSGTDFTLTISSLQPEDFATYYCQQYNSYPRTFGGGTKVEIK
notes: IgG1null (human IgG1 with L234A, L235A, G237A) and human Ckappa
For orientation: EC50 means the midpoint of the concentration-response curve. Consider B2, for which, in experiment [3], the binding result is on record as “binds”. Further, the “EC50 (read off the curve)” value in experiment [4] is roughly 0.007 µM. The same molecule registered an EC50 in experiment [5] of 0.0982 µM.
